Results taken from article PMC12918760.

T1: NONO homodimer (human, UniProt Q15233 53-312)
T1 sequence: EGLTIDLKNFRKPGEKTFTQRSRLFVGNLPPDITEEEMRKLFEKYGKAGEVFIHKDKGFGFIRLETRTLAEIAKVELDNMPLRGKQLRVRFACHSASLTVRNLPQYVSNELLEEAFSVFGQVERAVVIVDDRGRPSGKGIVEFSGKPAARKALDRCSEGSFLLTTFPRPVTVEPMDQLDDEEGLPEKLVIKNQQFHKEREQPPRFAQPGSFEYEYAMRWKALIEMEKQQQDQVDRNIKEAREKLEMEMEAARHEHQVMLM

T2: NONO in NONO/SFPQ heterodimer;SFPQ in NONO/SFPQ heterodimer (human;human?, UniProt Q15233;P23246 53-312;276-535, |)
T2 sequence 1: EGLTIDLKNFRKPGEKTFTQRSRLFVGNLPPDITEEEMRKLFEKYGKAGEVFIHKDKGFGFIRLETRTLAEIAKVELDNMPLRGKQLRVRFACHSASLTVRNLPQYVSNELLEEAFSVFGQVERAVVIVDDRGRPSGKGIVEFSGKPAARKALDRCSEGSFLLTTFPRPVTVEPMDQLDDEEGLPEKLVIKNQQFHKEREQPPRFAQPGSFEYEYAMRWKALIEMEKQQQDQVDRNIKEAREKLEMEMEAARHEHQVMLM
T2 sequence 2: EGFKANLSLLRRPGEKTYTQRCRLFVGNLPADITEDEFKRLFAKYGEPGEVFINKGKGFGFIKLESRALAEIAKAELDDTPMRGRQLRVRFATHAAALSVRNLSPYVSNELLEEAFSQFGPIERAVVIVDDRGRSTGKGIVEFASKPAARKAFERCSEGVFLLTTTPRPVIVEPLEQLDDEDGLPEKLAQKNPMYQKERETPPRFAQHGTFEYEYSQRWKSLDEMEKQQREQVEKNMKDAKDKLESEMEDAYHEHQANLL


How the values were obtained:
NONO homodimer = biological target: T1, NONO homodimer; assay: MST
[1] = biological target: T2, NONO in NONO/SFPQ heterodimer;SFPQ in …; assay: MST

Binder	binding result (NONO homodimer)	binding result [1]
TUGUGCCGUCU (ssRNA, 5' residue printed as T) [GU-rich RNA oligo 2]	binds	binds
TGUGUGUGGCCGU (ssRNA, 5' residue printed as T) [GU-rich RNA oligo 1]	binds	binds
